The source of these data is the nanobody polyreactivity screen of Harvey et al. (2022).

A short description of this series: yeast display, Sf9 membrane polyspecificity reagent, FACS + sequencing; frameworks hold sequencing errors. In short, it runs like this:
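In a synthetic yeast display library (Saccharomyces cerevisiae BJ5465), nanobody expression was induced with galactose for 36–48 hours. FACS gates were set low and high (top ~1%) using anti-HA fluorescence for expression and streptavidin fluorescence for binding of the Sf9 membrane reagent. Each polyreactivity label is drawn from the gate of origin.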
Take “QVQLVESGGGLVQAGGSLRLSCAASGRTFDAYAMGWYRQAPGKERELVATITSGGGTYYADSVKGRFTISRDNEKNTVYLQMNSLKPEDYAVYYCNKRYVVSRKYDYWGQGTQVTVSS”: the “polyreactivity (PSR sort gate)” value is given as “low polyreactivity”. Regarding “QVQLVESGGGLVQAGGSLRLSCAASGRTFDDNAMGWYRQAPGKERELVASISSGTSTNYADSVKGRFTISRDNAKNTVYVQMNCLKPEDTAVYYCNAYGPIWYTAVLGVGRYYGWTDYWGQGTQVTVSS”, the “polyreactivity (PSR sort gate)” value is “low polyreactivity”. For “QVQLVESGGGLVQAGGSLRLSCAASGRTFDDYAKGWYRQAPGKETEFVAAITRSGGGTHYADSVKGRFTISRDNAKNTVYLQMNSLKPEDTAVYYCAARAHGTYVRRRYDYWGQGTQVTVSS”, the “polyreactivity (PSR sort gate)” value is on record as “high polyreactivity”.

Take “QVQLVESGGGLVQAGGSLRLSCAASGRTFDFYAMGWYRQAPGKERELVASIDWDGGSTYYADSVKGRFTISRDNAKNTVYLQMNSLKPEDTAVYYCAKDGQKFTSSLYDYWGQGTQVTVSS”: the “polyreactivity (PSR sort gate)” value is on record as “low polyreactivity”. “QVQLVESGGGLVQAGGSLRLSCAASGRTFDFYAMGWYRQAPGKERELVASNTFSTGSTTYADSVKGRFTISRDNAKITVYLQMNILKPEDTAVYYCAADGDCWWWSYVDRYDYWGQGTQVTVSS”: the “polyreactivity (PSR sort gate)” value is reported as “low polyreactivity”.

For “QVQLVESGGGLVQAGGSLRLSCAASGRTFDGNTMGWYRQAPGKERELVAAITKRGGSTYYADSVKGRFTFSRDNAKNTVYLQMNSLKPEDTAVYYCAKGQSYSTRLSPYYYWGQGTQVTVSS”, the “polyreactivity (PSR sort gate)” value is “high polyreactivity”. Then “QVQLVESGGGLVQAGGSLRLSCAASGRTFDGNVMGWNRQAPGKERELVAAITASGGRTYYADSVKGRFTISRDNANNTVYIEMNSLNPEDTAVYYCAARIYRVYYVHFAPYYYWGQGTQVTVSS”, with “high polyreactivity”; and “QVQLVESGGGLVQAGGSLRLSCAASGRTFDGYAMGWYRQAPGKERELVAAIDGGGSTNYADSVKGRFTISRDNAKNTVYLQMNSLKPEDTAVYYCAADRGSGPGYDYWGQGTQVTVSS”, with “low polyreactivity”. “QVQLVESGGGLVQAGGSLRLSCAASGRTFDGYAMGWYRQAPGKERELVAAIDYDGVSTYYADSVKGRFTISRDNAKNTVYLEMNSLKPEDTAVYYCAVDATDDWWLDYWGQGTQVTVSS”: the “polyreactivity (PSR sort gate)” value is listed as “low polyreactivity”. For “QVQLVESGGGLVQAGGSLRLSCAASGRTFDHNAMGWYRQAPGKERELVAAITWSGGITDYADSVKRPFTISRDNAKNTVYLQMNSLKPEDTAVWGQGTQVTVSS”, the “polyreactivity (PSR sort gate)” value is “low polyreactivity”. The value for “QVQLVESGGGLVQAGGSLRLSCAASGRTFDHNTMGWYRQAPGTERELVAAISWSGGTTYYADSVKGRFTISRDNAKNTGYLQMNSLKPEDTAVYDCAADRSPGSYGYQYDYWGQGTQVTVSS” was “low polyreactivity”; that for “QVQLVESGGGLVQAGGSLRLSCAASGRTFDKYAMGCYRPAPGTQRELVAAINSSGGSTYYSDSVKGRFTISRDNEKNTVYLQMNSLKPEDTAFYYCAALGIGSYRRYSCYDYWGQGPQVTVSS” was “low polyreactivity”.

For the sequence “QVQLVESGGGLVQAGGSLRLSCAASGRTFDKYAMGWYRQAPGKERELVAAISGSGGRTYYADSVKGRFTISRDNETNTVYLQMNSLKPEDTAVYYCAADTRSYTYYYWGQGTQVTVSS”, the “polyreactivity (PSR sort gate)” value is recorded as “high polyreactivity”. Consider “QVQLVESGGGLVQAGGSLRLSCAASGRTFDLYDMGWYRQAPGKERELVARISYNGGITYYADSVKGRFTISRDNAKNTVYLQMNSLKPEDTAVYYCDGRYRPHFGPLFEYDYWGQGTQVTVSS”, for which the “polyreactivity (PSR sort gate)” value is on record as “low polyreactivity”. Consider “QVQLVESGGGLVQAGGSLRLSCAASGRTFDPYAMGWYRQAPGKERELVASISRGGSTYADSVKGRFTISRDNAKNTVFLQMNSLKPEDTAVYYCNTSLYTEGDAMDYWGQGTQVTVSS”, for which the “polyreactivity (PSR sort gate)” value is given as “low polyreactivity”. Turning to “QVQLVESGGGLVQAGGSLRLSCAASGRTFDRNARGWYRQAPGKEREVVARITIDGSTNYADSVKGRFTISRDNAKNTVYLQMNSLKPEETAVYYCATDQLSLSWYFRPYDYCYWGQVTQVTVSS”, the “polyreactivity (PSR sort gate)” value was “high polyreactivity”. Then “QVQLVESGGGLVQAGGSLRLSCAASGRTFDRYAMGWARQAPGKERELVATISRSGGSTYYADSVKGRFTISRDNAKNTVYLQMNSLKPEDSAVYYCAARQRTTSDGWRDSWGQGTQVTVSS”, with “high polyreactivity”; and “QVQLVESGGGLVQAGGSLRLSCAASGRTFDSNAMGLYRQAPGKERELVAAISYGGGTTHYADSVKGRFTISRDNAKNTVYLQMNSLKPEDTAVYYCAADPEHQWESVTIGEYDYWGQGTQVTVSS”, with “low polyreactivity”. The value for “QVQLVESGGGLVQAGGSLRLSCAASGRTFDSNAMGWYRQAPGKERELVAGISESGGSTYYADSVKGRFTISRDNAKNTVYLQMNSLKPEDTAVYYCAYSGITVYYHRAVDFIVSYDYWGQGTQVTVSS” was “low polyreactivity”; that for “QVQLVESGGGLVQAGGSLRLSCAASGRTFDSYTMGWYRQAPGKERELVADITFTGGSTYYADSVKGRFTISRDNAKNTVYLQMNSLKPDDTAVYYCNADREYKWYFRYDYWGQGTQVTVSS” was “low polyreactivity”; that for “QVQLVESGGGLVQAGGSLRLSCAASGRTFDTNAMGWYRQAPGKERELVAVITARGGNTSYADSVKGRFTISRENAKNTVSLQMNSLKPEDTAVYYCAARVYRAPWTYEEGNYWGQGTQVTVSS” was “low polyreactivity”. Then “QVQLVESGGGLVQAGGSLRLSCAASGRTFDVYAMGWYRQAPGKERELVATISYRSARTYYADSVKGRFTISRDNAKNTVYLQMNSLKPEDTAVYYCAAYFETWHGVGYWGQGTQVTVSS”, with “high polyreactivity”; and “QVQLVESGGGLVQAGGSLRLSCAASGRTFDVYAMGWYRQAPGKERELVAVIRGRAGSTYYADSVKGRFTISRDNAKNTVYLQMNSLKPEDTAVYYCAAAKYVRRGLRAWRGDEYDYWGQGTQVTVSS”, with “high polyreactivity”; and “QVQLVESGGGLVQAGGSLRLSCAASGRTFDVYAMGWYRQPPGKESELVATISYRSARTYSADSVKGRFTISRDNAKNTVYLQMNSLKPEDTAVYYCAARVGARVSQPRRHGRFNYWGQGTQVTVSS”, with “high polyreactivity”. For “QVQLVESGGGLVQAGGSLRLSCAASGRTFDWYVMGWYRQAPGKERELVATITRDGSTNYADSVKGRFTISRDNAKNTVYLQMNSLKPEDTAVYYCAATVPPLVGYDYWGQGTQVTVSS”, the “polyreactivity (PSR sort gate)” value was “low polyreactivity”. Take “QVQLVESGGGLVQAGGSLRLSCAASGRTFEDNAMGWYRQAPGKERELVAAISSDGSTNYADSVKGRFTISRDNAKNTVYLQMNSLKPEDTAVYYCNATVYWPYDWRTSDYWGQGTQVTVSS”: the “polyreactivity (PSR sort gate)” value is on record as “low polyreactivity”. In the case of “QVQLVESGGGLVQAGGSLRLSCAASGRTFEGYAMGWYRQAPGKERELVAAISGSSGSTYYADSVKGRFTISRDNAKNTVYLQMNSLKPEDTAVYYCNADYDWPGGSDYWGQGTQVTVSS”, the “polyreactivity (PSR sort gate)” value was “low polyreactivity”. As to “QVQLVESGGGLVQAGGSLRLSCAASGRTFEHYSMGWYRQAPGKEREFVAVIDSSDGSTYYADSVKGRFTISRDNAKNTVYLQMNSLKPEDTAVYYCLGGYYYLQYDYWGQGTQVTVSS”, the “polyreactivity (PSR sort gate)” value is given as “low polyreactivity”. Then “QVQLVESGGGLVQAGGSLRLSCAASGRTFEHYVMGWYRQAPGKERELVAAISNSGDTTFYADSVKGRFTISRDNAKNTVYFQMNSLKPEDTAVYYCNADSYWHWGEWLYAPYDYWGQGTQVTVSS”, with “low polyreactivity”; and “QVQLVESGGGLVQAGGSLRLSCAASGRTFEINAMGWYRQAPGKERELVAAITVSGGSTYYADSVKGRFTISRDNAKNTVYLQMNSLKPEDTAVYYCAVEIDYGQGKEVNSWGQGTQVTVSS”, with “low polyreactivity”.
